# Publication PMC1964790, “An ectromelia virus profilin homolog interacts with cellular tropomyosin and viral A-type inclusion protein” (Virology Journal, 2007)
# Biological target: the molecule itself
# Experiment: SDS-PAGE with western blot
protein,measurement,value
"His-tagged ectromelia virus strain Moscow gene 141 profilin homolog (ECTV-PH) (natural protein, also called ECTV-Moscow 141; His-ECTV-PH; not shown: His6, N-terminal, kept) MAAEWHKIIEDVSKNNKFEDAAIVDYKTKKNVLAAIPNRTFAKIIPGEVIALITNRNILKPRIGQKFFIVYTNSLMDENTYTMELLTGYAPVSPIVIARTHTALIFLMGKPTTSRREVYRTCRDYATNVRATGN",stoichiometry N,2
